# Laboratory results taken from US20240092919A1 (Ablynx, published 2024).
# T1: Human T cell receptor on human primary T cells (human, UniProt P01848 1-140; P01850 1-176)
# T1 TCR alpha (looked up): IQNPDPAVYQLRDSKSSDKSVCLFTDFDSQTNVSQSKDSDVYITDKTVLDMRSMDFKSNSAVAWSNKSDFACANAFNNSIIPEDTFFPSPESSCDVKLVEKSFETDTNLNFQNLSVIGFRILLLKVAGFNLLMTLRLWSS
# T1 TCR beta (looked up): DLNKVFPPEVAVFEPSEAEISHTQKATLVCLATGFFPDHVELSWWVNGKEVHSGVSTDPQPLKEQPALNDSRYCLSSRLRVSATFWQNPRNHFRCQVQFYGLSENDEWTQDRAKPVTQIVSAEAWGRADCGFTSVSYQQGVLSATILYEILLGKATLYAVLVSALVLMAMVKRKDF
# T2: Cynomolgus TCR(AEA41865/AEA41866)-zipper protein (cynomolgus monkey)
# T2 construct: also called cyTCR-zipper protein; cynoTCR zipper
# T2 TCR alpha: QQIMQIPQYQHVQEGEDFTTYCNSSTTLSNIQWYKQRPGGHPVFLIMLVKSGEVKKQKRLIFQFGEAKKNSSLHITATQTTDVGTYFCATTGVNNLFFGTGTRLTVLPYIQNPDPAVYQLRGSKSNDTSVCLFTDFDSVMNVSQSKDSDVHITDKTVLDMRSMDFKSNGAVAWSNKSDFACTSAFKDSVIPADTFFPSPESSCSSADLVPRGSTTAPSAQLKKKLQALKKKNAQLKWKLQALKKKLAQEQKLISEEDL
# T2 TCR beta: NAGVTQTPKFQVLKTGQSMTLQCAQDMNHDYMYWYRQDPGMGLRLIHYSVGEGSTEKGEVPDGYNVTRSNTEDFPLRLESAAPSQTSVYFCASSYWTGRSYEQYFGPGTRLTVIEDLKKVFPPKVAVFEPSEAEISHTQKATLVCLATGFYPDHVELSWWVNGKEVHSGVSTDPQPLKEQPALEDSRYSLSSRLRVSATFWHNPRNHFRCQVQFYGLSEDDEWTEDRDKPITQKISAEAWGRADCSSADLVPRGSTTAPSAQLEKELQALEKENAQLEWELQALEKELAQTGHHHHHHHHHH
# T3: Cynomolgus TCR(AEA41865/AEA41866)-zipper protein (cynomolgus monkey)
# T3 construct: also called cyTCR-zipper protein; cynoTCR zipper
# T3 TCR alpha: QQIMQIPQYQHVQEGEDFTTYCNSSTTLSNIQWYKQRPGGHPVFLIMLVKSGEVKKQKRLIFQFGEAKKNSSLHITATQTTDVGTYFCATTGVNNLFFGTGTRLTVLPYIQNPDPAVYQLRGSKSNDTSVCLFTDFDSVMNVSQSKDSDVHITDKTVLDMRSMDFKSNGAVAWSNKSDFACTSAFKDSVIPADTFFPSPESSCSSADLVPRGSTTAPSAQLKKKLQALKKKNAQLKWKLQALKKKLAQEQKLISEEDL
# T3 TCR beta: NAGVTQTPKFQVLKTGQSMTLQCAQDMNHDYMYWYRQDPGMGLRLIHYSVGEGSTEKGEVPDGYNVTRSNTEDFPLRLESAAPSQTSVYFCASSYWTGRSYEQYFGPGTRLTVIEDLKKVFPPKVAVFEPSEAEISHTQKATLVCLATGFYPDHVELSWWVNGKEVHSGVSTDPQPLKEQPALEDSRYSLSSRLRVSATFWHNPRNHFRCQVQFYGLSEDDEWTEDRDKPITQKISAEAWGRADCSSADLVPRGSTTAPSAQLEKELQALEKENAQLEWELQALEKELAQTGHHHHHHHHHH
# Experiments:
# [1] = target: T1, Human T cell receptor on human primary …; experiment: cell-based or functional assay
# [2] = target: T4, Cynomolgus T cell receptor on cynomolgus primary T cells (cynomolgus monkey); experiment: cell-based or functional assay
# [3] = target: T1, Human T cell receptor on human primary …; experiment: cell-based or functional assay
# [4] = target: T4, Cynomolgus T cell receptor on …; experiment: cell-based or functional assay; remark: listed apart in the source
# [5] = target: T1, Human T cell receptor on human primary …; experiment: cell-based or functional assay
# [6] = target: T4, Cynomolgus T cell receptor on …; experiment: cell-based or functional assay; remark: listed apart in the source
# [7] = target: T1, Human T cell receptor on human primary …; experiment: cell-based or functional assay
# [8] = target: T4, Cynomolgus T cell receptor on …; experiment: cell-based or functional assay; remark: listed apart in the source
# [9] = target: T2, Cynomolgus …; experiment: SPR ProteOn off-rate screen
# Description: (§1) Unique ISVD clones, i.e. clones with a unique sequence, were subsequently selected and screened to determine their off-rate. To this purpose, the ISVD containing periplasmic extracts were screened on huTCR-zipper and cyTCR-zipper protein by SPR on a ProteOn XPR36 instrument. The zipper proteins were immobilized on a GLC sensor chip (between 4300 and 5100RU) via amine coupling chemistry, using EDC/sulfo-NHS for activation of the carboxyl groups on the chip surface (running buffer: HBS-EP+, pH7.4). Periplasmic extracts were injected at 1/10 dilution for 2 min (at a flow rate of 45 μL/min) and dissociation was followed for 900 s. A pulse of 100 s of 3 M MgCl2 at 45 μL/min was used for regeneration. […] Processed sensorgrams were fitted with the Langmuir model (1:1 interaction) using ProteOn Manager 3.1.0 (Version 3.1.0.6) software.
# [10] = target: T2, Cynomolgus …; experiment: ratio higher/lower kd on huTCR- and cyTCR-zipper (SPR)
# Description: as §1
# [11] = target: T1, Human T cell receptor on human primary …; experiment: flow cytometry, human primary T cells
# Protocol: The ISVD variants were characterized for binding to CHO-K1 huTCR(2XN9)/huCD3 or to human and cynomolgus primary T cells. […] Next, cells were washed 3 times with FACS buffer and incubated with 1 μg/ml ANTI-FLAG® M2 Ab (Sigma, F1804) and washed again. […] Subsequently, cells were resuspended in FACS buffer supplemented with 5 nM TO-PRO®-3 Iodide to distinguish live from dead cells, which are removed during the gating procedure. Cells were analyzed using a FACS Array flow cytometer (BD Biosciences) and Flowing Software. First a P1 population which represented more than 80% of the total cell population was selected based on FSC-SSC distribution. In this gate, 10000 cells were counted during acquisition. From this population the TO-PRO®-3+cells (dead cells) were excluded and the mean fluorescence intensity (MFI) PE value was calculated.
# [12] = target: T3, Cynomolgus …; experiment: higher koff divided by lower koff, humanTCR zipper vs cynoTCR zipper (SPR)
# [13] = target: T3, Cynomolgus …; experiment: SPR, ProteOn XPR36, 25 C, immobilised TCR-zipper
# Description: HuTCR-zipper or cyTCR-zipper protein was immobilized on a GLC sensor chip (between 100-200 RU) via amine coupling chemistry, using EDC/NHS for activation of the carboxyl groups on the chip surface (running buffer: HBS-EP+, pH7.4). […] Processed sensorgrams were fitted with the Langmuir model (1:1 interaction) using ProteOn Manager 3.1.0 (Version 3.1.0.6) software.
# Throughout, for % Lysis, T cell mediated MOLM-13 cell killing, cynomolgus primary T cells, E:T 10:1: test concentration or dose not given here.
# Throughout, for % Lysis, T cell mediated MOLM-13 cell killing, human primary T cells, E:T 10:1: test concentration or dose not given here.
binder,measurement,setting,value
T017000128 (bispecific antibody) DVQLVESGGGLVQPGGSLRLSCVASGDVHKINFLGWYRQAPGKEREKVAHISIGDQTDYADSAKGRFTISRDESKNMVYLQMNSLKPEDTAVYFCRAFSRIYPYDYWGQGTLVTVSSGGGGSGGGGSGGGGSGGGGSGGGGSGGGGSGGGGSEVQLVESGGGLVQAGGSLRLSCAASGITSKINDMGWYRQTPGNYREWVASITATGTTNYRDSVKGRFTISRDNAKSTVYLQMNSLKPEDTTVYYCNTFPPISNFWGQGTLVTVSSA,"% Lysis, T cell mediated MOLM-13 cell killing, human primary T cells, E:T 10:1",[1],32%
same,"EC50 (M), T cell mediated MOLM-13 cell killing, human primary T cells, E:T 10:1",[1],2.3e-10 M
same,"% Lysis, T cell mediated MOLM-13 cell killing, cynomolgus primary T cells, E:T 10:1",[2],37%
same,"EC50 (M), T cell mediated MOLM-13 cell killing, cynomolgus primary T cells, E:T 10:1",[2],1.7e-10 M
same,"% lysis, MOLM-13, Human T cell mediated killing",[3],24%
same,"EC50 (M), MOLM-13, Human T cell mediated killing",[3],3e-10 M
same,"% lysis, MOLM-13, Cynomolgus T cell mediated killing",[4],37%
same,"EC50 (M), MOLM-13, Cynomolgus T cell mediated killing",[4],4.1e-10 M
same,"% lysis, KG-1a, Human T cell mediated killing",[5],51%
same,"EC50 (M), KG-1a, Human T cell mediated killing",[5],1.3e-09 M
same,"% lysis, KG-1a, Cynomolgus T cell mediated killing",[6],61%
same,"EC50 (M), KG-1a, Cynomolgus T cell mediated killing",[6],6.7e-10 M
same,"IC50 (M), xCELLigence CHO Flp-In huCD123 cell killing, Human T cell mediated killing",[7],1.4e-11 M
same,"IC50 (M), xCELLigence CHO Flp-In huCD123 cell killing, Cynomolgus T cell mediated killing",[8],1.9e-11 M
T017000569 (VHH) VHH: EVQLVESGGGVVQPGGSLRLSCVASGDVHKLNFLGWYRQAPGKEREKVAHISIGDQTDYADSAKGRFTISRDESKNMVYLQMNSLRPEDTALYFCRAMSRIWPYDYWGQGTLVTVSS,koff,[9],0.00308 s⁻¹
same,gap in off-rate human vs cyno,[10],9 fold
"T017000641 (VHH, not shown: small tags and cut ends) VHH: EVQLVESGGGVVQPGGSLRLSCVASWDVHKINFYTWYRQAPGKEREKVAHISIGDQTDYADSAKGRFTISRDESKNTVYLQMNSLRPEDTALYYCRALSKIWPYDYWGQGTLVTVSS",EC50,[11],270 nM
same,Gap in off-rate human vs cyno,[12],1.1 fold
"T017000625 (VHH, not shown: small tags and cut ends) VHH: EVQLVESGGGVVQPGGSLRLSCVASYDVHKINFYGWYRQAPGKEREKVAHISIGDQTDYADSAKGRFTISRDESKNTVYLQMNSLRPEDTALYYCRALSKIWPYDYWGQGTLVTVSS",EC50,[11],230 nM
same,Gap in off-rate human vs cyno,[12],1 fold
T017000613 (VHH) VHH: EVQLVESGGGVVQPGGSLRLSCVASWDVHKINFYGWYRQAPGKEREKVAHISIGDQTDYADSAKGRFTISRDESKNMVYLQMNSLRPEDTALYFCRALSKIWPYDYWGQGTLVTVSS,koff,[9],0.000364 s⁻¹
same,gap in off-rate human vs cyno,[10],1 fold
"T017000623 (VHH, not shown: small tags and cut ends) VHH: EVQLVESGGGVVQPGGSLRLSCVASWDVHKINFYGWYRQAPGKEREKVAHISIGDQTDYADSAKGRFTISRDESKNTVYLQMNSLRPEDTALYYCRALSKIWPYDYWGQGTLVTVSS",EC50,[11],280 nM
same,Gap in off-rate human vs cyno,[12],1 fold
T017000602 (VHH) VHH: EVQLVESGGGVVQPGGSLRLSCVASWDVHQINFLGWYRQAPGKEREKVAHISIGDQTDYADSAKGRFTISRDESKNMVYLQMNSLRPEDTALYFCRAFSKIWPYDYWGQGTLVTVSS,koff,[9],0.00055 s⁻¹
same,gap in off-rate human vs cyno,[10],2 fold
"T017000635 (VHH, not shown: small tags and cut ends) VHH: EVQLVESGGGVVQPGGSLRLSCVASWDVHQINFYGWYRQAPGKEREKVAHISIGDQTDYADSAKGRFTISRDESKNTVYLQMNSLRPEDTALYYCRALSRIWPYDYWGQGTLVTVSS",EC50,[11],70 nM
same,Gap in off-rate human vs cyno,[12],> 55.9 fold
"T017000691 (VHH, not shown: small tags and cut ends) VHH: EVQLVESGGGVVQPGGSLRLSCVASWEVHQINFYGWYRQAPGKEREKVAHISIGDQTDYADSAKGRFTISRDESKNTVYLQMNSLRPEDTALYYCRALSRIWPYDYWGQGTLVTVSS",EC50,[11],150 nM
same,Gap in off-rate human vs cyno,[12],> 61.1 fold
T017000615 (VHH) VHH: EVQLVESGGGVVQPGGSLRLSCVASYDVHKINFYGWYRQAPGKEREKVAHISIGDQTDYADSAKGRFTISRDESKNMVYLQMNSLRPEDTALYFCRALSKIWPYDYWGQGTLVTVSS,koff,[9],0.00087 s⁻¹
same,gap in off-rate human vs cyno,[10],1.1 fold
"T017000131 (bispecific antibody, also called A0110056A10(E1D)-35GS-T0170056G05-A) DVQLVESGGGLVQAGGSLRLSCAASGITSKINDMGWYRQTPGNYREWVASITATGTTNYRDSVKGRFTISRDNAKSTVYLQMNSLKPEDTTVYYCNTFPPISNFWGQGTLVTVSSGGGGSGGGGSGGGGSGGGGSGGGGSGGGGSGGGGSEVQLVESGGGLVQPGGSLRLSCVASGDVHKINFLGWYRQAPGKEREKVAHISIGDQTDYADSAKGRFTISRDESKNMVYLQMNSLKPEDTAVYFCRAFSRIYPYDYWGQGTLVTVSSA","% Lysis, T cell mediated MOLM-13 cell killing, human primary T cells, E:T 10:1",[1],20%
same,"EC50 (M), T cell mediated MOLM-13 cell killing, human primary T cells, E:T 10:1",[1],1.3e-09 M
same,"% Lysis, T cell mediated MOLM-13 cell killing, cynomolgus primary T cells, E:T 10:1",[2],14%
same,"EC50 (M), T cell mediated MOLM-13 cell killing, cynomolgus primary T cells, E:T 10:1",[2],9e-10 M
same,"% lysis, MOLM-13, Human T cell mediated killing",[3],20%
same,"% lysis, MOLM-13, Cynomolgus T cell mediated killing",[4],14%
same,"EC50 (M), MOLM-13, Cynomolgus T cell mediated killing",[4],8.9e-10 M
same,"% lysis, KG-1a, Human T cell mediated killing",[5],29%
same,"EC50 (M), KG-1a, Human T cell mediated killing",[5],2.4e-09 M
same,"% lysis, KG-1a, Cynomolgus T cell mediated killing",[6],14%
same,"EC50 (M), KG-1a, Cynomolgus T cell mediated killing",[6],1.6e-09 M
same,"IC50 (M), xCELLigence CHO Flp-In huCD123 cell killing, Human T cell mediated killing",[7],3.4e-11 M
same,"IC50 (M), xCELLigence CHO Flp-In huCD123 cell killing, Cynomolgus T cell mediated killing",[8],8.1e-11 M
same,Kd,[13],1600 nM
"T017000634 (bispecific antibody, also called A0110056A10(E1D)-35GS-T0170056G05(L11V, D27Y, L34Y, M77T, K83R, V89L, F91Y, F95L, Y99W)-A) DVQLVESGGGLVQAGGSLRLSCAASGITSKINDMGWYRQTPGNYREWVASITATGTTNYRDSVKGRFTISRDNAKSTVYLQMNSLKPEDTTVYYCNTFPPISNFWGQGTLVTVSSGGGGSGGGGSGGGGSGGGGSGGGGSGGGGSGGGGSEVQLVESGGGVVQPGGSLRLSCVASGYVHKINFYGWYRQAPGKEREKVAHISIGDQTDYADSAKGRFTISRDESKNTVYLQMNSLRPEDTALYYCRALSRIWPYDYWGQGTLVTVSSA","EC50 (M), T cell mediated MOLM-13 cell killing, human primary T cells, E:T 10:1",[1],1.4e-10 M
same,"% Lysis, T cell mediated MOLM-13 cell killing, cynomolgus primary T cells, E:T 10:1",[2],32%
same,"EC50 (M), T cell mediated MOLM-13 cell killing, cynomolgus primary T cells, E:T 10:1",[2],1.2e-10 M
same,"% lysis, MOLM-13, Human T cell mediated killing",[3],22%
same,"EC50 (M), MOLM-13, Human T cell mediated killing",[3],2.5e-10 M
same,"% lysis, MOLM-13, Cynomolgus T cell mediated killing",[4],33%
same,"EC50 (M), MOLM-13, Cynomolgus T cell mediated killing",[4],2.1e-10 M
same,"% lysis, KG-1a, Human T cell mediated killing",[5],49%
same,"EC50 (M), KG-1a, Human T cell mediated killing",[5],4.4e-10 M
same,"% lysis, KG-1a, Cynomolgus T cell mediated killing",[6],41%
same,"EC50 (M), KG-1a, Cynomolgus T cell mediated killing",[6],2.7e-10 M
same,"IC50 (M), xCELLigence CHO Flp-In huCD123 cell killing, Human T cell mediated killing",[7],1.1e-11 M
same,"IC50 (M), xCELLigence CHO Flp-In huCD123 cell killing, Cynomolgus T cell mediated killing",[8],1.9e-11 M
same,Kd,[13],200 nM
